A word on the Kd: it is the free concentration of one partner at which half of the binding sites on the other are occupied at equilibrium, for simple one-to-one binding. As a reminder, the kon is the second-order rate constant of association. A lower kon goes with slow association.

One assay has as its target T1, human FcγRIIA H131 (human, UniProt P12318 34-218, limits assumed).
T1 sequence (looked up): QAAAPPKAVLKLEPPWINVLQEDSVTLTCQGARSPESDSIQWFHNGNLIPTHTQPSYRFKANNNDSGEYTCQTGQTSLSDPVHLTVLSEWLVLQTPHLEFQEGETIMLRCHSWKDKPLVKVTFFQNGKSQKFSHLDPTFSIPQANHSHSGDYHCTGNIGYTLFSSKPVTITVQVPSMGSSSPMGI
The assay can be described thus: SPR, AB0621 on Protein A chip, 25C, pH 7.4. On the procedure: (§1) AB0621 was captured onto a Protein A chip (Cytiva, #29127556). Human FcγRs were titrated over captured AB0621 as 3-fold serial dilutions starting from 300 nM for FcγRI, 1000 nM for FcγRIIA R131 and H131, and 3000 nM for FcγRIIB and FcγRIIIB. Association was monitored for 120 sec and dissociation was monitored for 180 sec. Assays were run at 25° C. at pH 7.4. The surface of the chip was regenerated with 10 mM glycine pH 1.5 for 20 sec at 30 μL/min.
A general note: SPR reads the build-up and loss of mass on a sensor chip optically.

The next assay deals with human FcγRI (human, UniProt P12314 16-288, limits assumed). The assay can be described thus: SPR, AB0621 on Protein A chip, 25C, pH 7.4. The protocol:
as §1

Another assay addresses T2, human FcγRIIB (human, UniProt P31994 43-217, limits assumed).
T2 sequence (looked up): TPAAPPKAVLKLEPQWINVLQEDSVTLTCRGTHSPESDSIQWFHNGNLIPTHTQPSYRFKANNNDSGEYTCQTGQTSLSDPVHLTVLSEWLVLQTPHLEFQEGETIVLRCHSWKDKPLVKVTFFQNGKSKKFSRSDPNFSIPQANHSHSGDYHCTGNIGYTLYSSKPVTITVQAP
The assay can be described thus: SPR, AB0621 on Protein A chip, 25C, pH 7.4. On the procedure:
as §1

In another assay the target is T3, Cynomolgus CEACAM5 (cynomolgus monkey).
T3 construct: also called cyno CEACAM5
Description: SPR, anti-hFc capture, 37C, pH 7.4. On the procedure: (§2) To determine the affinity and cross-reactivity of CEACAM5 TriNKET molecules, AB0411, AB0466, or AB0621 TriNKETs were captured using an anti-human Fc capture antibody (Cytiva, #BR100839) immobilized onto a Biacore CM5 standard surface sensor chip following manufacturer instructions. Human or cynomolgus CEACAM5 were titrated over captured AB0411, AB0466, and AB0621 as 2-fold serial dilutions starting from 300 nM. Association was monitored for 300 sec and dissociation was monitored for 600 sec. The assay was run at 37° C. at pH 7.4 and 6.0. The surface of the CM5 chip was regenerated with 10 mM glycine pH 1.5 for 20 sec at 100 μL/min.

Another assay concerns the target Human FcRn (human, UniProt P55899 24-297; P61769 21-119, limits assumed). The assay can be described thus: SPR, anti-kappa capture, 25C, pH 6.0; pH 6.0. On the procedure: (§3) Anti-kappa light chain antibody was immobilized onto a CM5 chip following a standard amine-coupling protocol. AB0621 was captured onto the chip and human or cynomolgus FcRn was titrated from 2000 nM as 2-fold serial dilutions. Association was monitored for 120 sec and dissociation was monitored for 180 sec. Assays were run at 25° C. at both pH 7.4 and pH 6.0. The surface of the chip was regenerated with two pulses of 10 mM glycine pH 1.5 for 20 sec at 30 μL/min followed by 10 mM NaOH for 20 sec at 30 μL/min.

The target of the next assay is Cyno FcRn (cynomolgus monkey, UniProt Q8SPV9 24-297; Q8SPW0 21-119, limits assumed). Description: SPR, anti-kappa capture, 25C, pH 6.0; pH 6.0. The protocol:
as §3

Another assay concerns the target T4, Human CEACAM5 (K398) (human, UniProt P06731 35-685, limits assumed).
T4 construct: also called K398 allele
T4 sequence: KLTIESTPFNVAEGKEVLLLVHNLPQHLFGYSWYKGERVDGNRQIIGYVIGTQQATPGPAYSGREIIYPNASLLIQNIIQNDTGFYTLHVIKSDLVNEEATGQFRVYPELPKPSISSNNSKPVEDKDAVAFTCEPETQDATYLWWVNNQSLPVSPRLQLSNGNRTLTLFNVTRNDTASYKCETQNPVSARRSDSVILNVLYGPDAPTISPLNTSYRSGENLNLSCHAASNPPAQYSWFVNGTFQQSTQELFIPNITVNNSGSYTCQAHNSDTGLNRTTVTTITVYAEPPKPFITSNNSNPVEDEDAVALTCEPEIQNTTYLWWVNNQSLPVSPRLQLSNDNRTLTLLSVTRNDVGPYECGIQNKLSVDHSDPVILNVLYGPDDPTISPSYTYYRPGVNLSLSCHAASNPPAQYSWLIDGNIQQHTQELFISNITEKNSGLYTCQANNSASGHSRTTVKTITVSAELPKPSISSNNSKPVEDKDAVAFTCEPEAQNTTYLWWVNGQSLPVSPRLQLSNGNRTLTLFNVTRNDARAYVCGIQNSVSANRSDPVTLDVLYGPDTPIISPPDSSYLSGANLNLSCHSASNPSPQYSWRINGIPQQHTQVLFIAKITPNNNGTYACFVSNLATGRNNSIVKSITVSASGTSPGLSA
The assay can be described thus: SPR, anti-hFc capture, 37C, pH 7.4. On the procedure:
as §2

For assay [1], the target named is T5, human CD16A (FcγRIIIA) V158 (human, UniProt P08637 17-208, limits assumed, biotinylated in the assay of Table 21).
T5 construct: also called CD16A (V158/V176)
Description: SPR (Biacore), AB0264 captured on a CM5 chip with immobilised human CEACAM5; 2 uM CD16A, then premix of 2 uM CD16A and 2 uM NKG2D-His. An excerpt:
This surface was used to first stably capture AB0264 onto the chip surface. […] The ratio of binding signals (which are proportional to MWs) was approximately 5:1:1 which is consistent with a 1:1:1 molar stoichiometry of complex bound on the CEACAM5 surface.

Residue numbers refer to the chain shown, from its start.

Chain of human FcγRI (P12314 16-288 limits assumed): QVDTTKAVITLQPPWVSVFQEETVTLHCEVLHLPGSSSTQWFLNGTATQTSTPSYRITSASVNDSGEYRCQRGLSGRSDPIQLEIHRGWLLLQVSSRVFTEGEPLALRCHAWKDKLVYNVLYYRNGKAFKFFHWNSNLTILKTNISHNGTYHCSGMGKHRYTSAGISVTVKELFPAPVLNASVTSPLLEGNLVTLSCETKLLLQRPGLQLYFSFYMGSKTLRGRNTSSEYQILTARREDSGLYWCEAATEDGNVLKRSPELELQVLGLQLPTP
Chain of Cyno FcRn (Q8SPV9 24-297 limits assumed, chain 1 of 2): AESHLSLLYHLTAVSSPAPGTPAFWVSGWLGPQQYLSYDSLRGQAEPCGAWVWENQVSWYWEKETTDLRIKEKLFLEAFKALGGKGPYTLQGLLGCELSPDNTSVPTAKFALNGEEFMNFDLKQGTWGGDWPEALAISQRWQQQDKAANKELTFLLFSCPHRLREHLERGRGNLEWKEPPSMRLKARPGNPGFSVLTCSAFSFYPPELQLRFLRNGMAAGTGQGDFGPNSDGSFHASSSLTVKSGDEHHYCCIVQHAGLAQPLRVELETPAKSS
Chain of Cyno FcRn (Q8SPW0 21-119 limits assumed, chain 2 of 2): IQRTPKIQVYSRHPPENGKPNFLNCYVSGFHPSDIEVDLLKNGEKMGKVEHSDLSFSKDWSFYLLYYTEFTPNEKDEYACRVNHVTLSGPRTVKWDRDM
T5 sequence (P08637 17-208 F176V limits assumed): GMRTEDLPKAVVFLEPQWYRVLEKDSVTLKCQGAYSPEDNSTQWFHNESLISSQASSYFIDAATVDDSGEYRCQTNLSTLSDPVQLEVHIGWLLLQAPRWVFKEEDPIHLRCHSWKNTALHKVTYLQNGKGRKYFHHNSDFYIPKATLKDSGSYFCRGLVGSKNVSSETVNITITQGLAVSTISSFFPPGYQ
Chain of Human FcRn (P55899 24-297 limits assumed, chain 1 of 2): as the sequence (Q8SPV9 24-297 limits assumed, chain 1 of 2) above, with D39N, Q44E, S99G, G189S, N190S, M217L, T269S counted along it
Chain of Human FcRn (P61769 21-119 limits assumed, chain 2 of 2): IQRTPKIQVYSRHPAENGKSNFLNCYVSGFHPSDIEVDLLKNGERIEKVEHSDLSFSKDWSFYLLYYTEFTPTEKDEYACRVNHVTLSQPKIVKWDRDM

B1: AB0621 F3' CEACAM5 TriNKET (bispecific antibody, human IgG1, kappa)
chain: DIVMTQSPDSLAVSLGERATINCKSSHSLLYGNFQNNYLAWYQQKPGQPPKLLIYWASTRESGVPDRFSGSGSGTDFTLTISSLQAEDVAVYYCQQYYSYPYTFGCGTKLEIKGGGGSGGGGSGGGGSGGGGSQVQLVQSGAEVKKPGASVKVSCKASGYTFTAYTIHWVRQAPGQCLEWMGYINPSSGYTEYNQKFKDRTTLTADTSISTAYMELSRLRSDDTAVYYCTREGGLLWFDYWGQGTLVTVSSGSDKTHTCPPCPAPELLGGPSVFLFPPKPKDTLMISRTPEVTCVVVDVSHEDPEVKFNWYVDGVEVHNAKTKPREEQYNSTYRVVSVLTVLHQDWLNGKEYKCKVSNKALPAPIEKTISKAKGQPREPRVYTLPPCRDELTKNQVSLTCLVKGFYPSDIAVEWESNGQPENNYKTTPPVLVSDGSFTLYSKLTVDKSRWQQGNVFSCSVMHEALHNHYTQKSLSLSPG
heavy: EVQLVESGGGLVKPGGSLRLSCAASGFTFSSYSMNWVRQAPGKGLEWVSSISSSSSYIYYADSVKGRFTISRDNAKNSLYLQMNSLRAEDTAVYYCARGAPIGAAAGWFDPWGQGTLVTVSSASTKGPSVFPLAPSSKSTSGGTAALGCLVKDYFPEPVTVSWNSGALTSGVHTFPAVLQSSGLYSLSSVVTVPSSSLGTQTYICNVNHKPSNTKVDKKVEPKSCDKTHTCPPCPAPELLGGPSVFLFPPKPKDTLMISRTPEVTCVVVDVSHEDPEVKFNWYVDGVEVHNAKTKPREEQYNSTYRVVSVLTVLHQDWLNGKEYKCKVSNKALPAPIEKTISKAKGQPREPQVCTLPPSRDELTENQVSLTCLVKGFYPSDIAVEWESNGQPENNYKTTPPVLDSDGSFFLYSWLTVDKSRWQQGNVFSCSVMHEALHNHYTQKSLSLSPG
light: DIQMTQSPSSVSASVGDRVTITCRASQGISSWLAWYQQKPGKAPKLLIYAASSLQSGVPSRFSGSGSGTDFTLTISSLQPEDFATYYCQQGVSFPRTFGGGTKVEIKRTVAAPSVFIFPPSDEQLKSGTASVVCLLNNFYPREAKVQWKVDNALQSGNSQESVTEQDSKDSTYSLSSTLTLSKADYEKHKVYACEVTHQGLSSPVTKSFNRGEC
As for B1, the equilibrium dissociation constant (Kd) amounted to 600 nM with human FcγRIIA H131; 14 nM in the assay with human FcγRI; 3300 nM with human FcγRIIB; 14 nM in the assay with Cynomolgus CEACAM5; 440 nM with Human FcRn; 310 nM with Cyno FcRn. Besides, the kon with human FcγRI came out at 2.6e+06 M⁻¹ s⁻¹; in the assay with Cynomolgus CEACAM5 it was 61000 M⁻¹ s⁻¹.

B2: AB0264 F3' CEACAM5 TriNKET (bispecific antibody, human IgG1, kappa)
chain: B1 chain with S210P
heavy: B1 heavy
light: B1 light
Consider B2, for which, in the assay with Human CEACAM5 (K398), the Kd stood at 13 nM and the kon came to 91000 M⁻¹ s⁻¹. The binding result in assay [1] was “binds”.

The record behind these values is US20240124607A1 (Merck Sharp & Dohme, published 2024).
